Assay results: publication PMC9482650, “Quantitative fragmentomics allow affinity mapping of interactomes” (Nature Communications, 2022)

Key:
Experiment in all cases: holdup assay
Parameters in all cases: key: below the threshold = too weak to quantify, mostly under pKd 3.1 to 4
Settings in all cases: plain residues with an end cap or a label only (N-terminal biotin on a linker: ado-ado)
ARHGEF12, Q9NZN5-2 = target: ARHGEF12, Q9NZN5-2
CARD11, Q9BXL7 = target: T1, CARD11, Q9BXL7
T1 sequence (Q9BXL7 662-765, limits assumed, looked up): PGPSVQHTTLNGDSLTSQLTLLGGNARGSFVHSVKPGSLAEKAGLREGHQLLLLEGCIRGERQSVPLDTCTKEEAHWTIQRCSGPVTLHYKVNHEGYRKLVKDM

DLG1_3, Q12959 = target: DLG1_3, Q12959
FRMPD1, Q5SYB0 = target: T2, FRMPD1, Q5SYB0
T2 sequence (Q5SYB0 52-145, limits assumed, looked up): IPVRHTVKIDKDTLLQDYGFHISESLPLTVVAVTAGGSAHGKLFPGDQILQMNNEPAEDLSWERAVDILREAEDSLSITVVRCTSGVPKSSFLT

GIPC2, Q8TF65 = target: GIPC2, Q8TF65
GRIP1_2, Q9Y3R0 = target: T3, GRIP1_2, Q9Y3R0
T3 sequence (Q9Y3R0 145-248, limits assumed, looked up): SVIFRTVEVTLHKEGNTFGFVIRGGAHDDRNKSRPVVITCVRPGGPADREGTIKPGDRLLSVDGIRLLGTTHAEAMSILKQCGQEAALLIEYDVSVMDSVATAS

GRIP2_4, Q9C0E4 = target: GRIP2_4, Q9C0E4
HTRA1, Q92743 = target: HTRA1, Q92743
HTRA4, P83105 = target: T4, HTRA4, P83105
T4 sequence (P83105 378-476, limits assumed, looked up): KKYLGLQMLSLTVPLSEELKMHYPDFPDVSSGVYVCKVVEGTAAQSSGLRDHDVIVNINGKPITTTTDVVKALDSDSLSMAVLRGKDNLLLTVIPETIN

Inadl_5, Q8NI35 = target: Inadl_5, Q8NI35
Inadl_6, Q8NI35 = target: Inadl_6, Q8NI35
LDB3, O75112 = target: LDB3, O75112
LNX1_3, Q8TBB1 = target: LNX1_3, Q8TBB1
MAGI2_3, Q86UL8 = target: MAGI2_3, Q86UL8
MAGI2_4, Q86UL8 = target: MAGI2_4, Q86UL8
MAGI2_5, Q86UL8 = target: MAGI2_5, Q86UL8
NHERF3_3, Q5T2W1 = target: T5, NHERF3_3, Q5T2W1
T5 sequence (Q5T2W1 238-333, limits assumed, looked up): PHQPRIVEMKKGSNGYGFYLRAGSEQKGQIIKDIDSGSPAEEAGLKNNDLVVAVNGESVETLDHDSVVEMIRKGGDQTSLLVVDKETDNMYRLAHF

NHERF3_4, Q5T2W1 = target: T6, NHERF3_4, Q5T2W1
T6 sequence (Q5T2W1 373-468, limits assumed, looked up): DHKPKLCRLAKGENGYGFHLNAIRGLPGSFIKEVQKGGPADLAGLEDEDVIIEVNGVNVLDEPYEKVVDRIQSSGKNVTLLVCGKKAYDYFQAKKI

NHERF4_2, Q86UT5 = target: NHERF4_2, Q86UT5
PDZD2_2, O15018 = target: T7, PDZD2_2, O15018
T7 sequence (O15018 329-429, limits assumed, looked up): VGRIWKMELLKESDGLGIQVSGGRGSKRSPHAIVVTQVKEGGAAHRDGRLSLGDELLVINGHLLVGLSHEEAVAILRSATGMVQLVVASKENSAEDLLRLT

PICK1, Q9NRD5 = target: PICK1, Q9NRD5
PTPN3, P26045 = target: PTPN3, P26045
SCRIB_2, Q14160 = target: SCRIB_2, Q14160
SIPA1L2, Q9P2F8 = target: T8, SIPA1L2, Q9P2F8
T8 sequence (Q9P2F8 945-1036, limits assumed, looked up): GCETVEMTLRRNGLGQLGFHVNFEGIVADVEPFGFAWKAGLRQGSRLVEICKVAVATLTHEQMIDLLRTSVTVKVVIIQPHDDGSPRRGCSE

SNTA1, Q13424 = target: T9, SNTA1, Q13424
T9 sequence (Q13424 82-180, limits assumed, looked up): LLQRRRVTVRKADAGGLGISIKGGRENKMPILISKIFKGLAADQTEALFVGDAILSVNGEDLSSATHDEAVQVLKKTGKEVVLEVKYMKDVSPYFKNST

SNTG1, Q9NSN8 = target: T10, SNTG1, Q9NSN8
T10 sequence (Q9NSN8 52-150, limits assumed, looked up): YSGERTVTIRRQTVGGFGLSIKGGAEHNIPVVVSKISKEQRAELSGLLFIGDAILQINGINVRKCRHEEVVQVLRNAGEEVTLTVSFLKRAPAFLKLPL

TJP3_3, O95049 = target: T11, TJP3_3, O95049
T11 sequence (O95049 375-456, limits assumed, looked up): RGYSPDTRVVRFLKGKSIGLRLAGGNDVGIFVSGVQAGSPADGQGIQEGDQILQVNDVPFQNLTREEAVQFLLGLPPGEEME

MAGI2_4, Q86UL8, sequence (Q86UL8 772-865): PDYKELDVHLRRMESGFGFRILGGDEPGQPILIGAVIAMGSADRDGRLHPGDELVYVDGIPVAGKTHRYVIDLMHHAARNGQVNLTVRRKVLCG
HTRA1, Q92743, sequence (Q92743 360-477): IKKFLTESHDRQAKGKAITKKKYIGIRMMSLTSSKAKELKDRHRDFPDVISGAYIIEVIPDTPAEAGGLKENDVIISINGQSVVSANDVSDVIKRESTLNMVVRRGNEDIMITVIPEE
PICK1, Q9NRD5, sequence (Q9NRD5 17-115): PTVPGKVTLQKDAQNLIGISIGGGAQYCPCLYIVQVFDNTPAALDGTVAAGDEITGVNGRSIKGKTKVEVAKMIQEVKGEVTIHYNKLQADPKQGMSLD
GRIP2_4, Q9C0E4, sequence (Q9C0E4 446-548): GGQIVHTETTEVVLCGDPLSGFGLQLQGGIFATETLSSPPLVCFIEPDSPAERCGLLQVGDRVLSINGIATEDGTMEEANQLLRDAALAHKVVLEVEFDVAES
SCRIB_2, Q14160, sequence (Q14160 857-960): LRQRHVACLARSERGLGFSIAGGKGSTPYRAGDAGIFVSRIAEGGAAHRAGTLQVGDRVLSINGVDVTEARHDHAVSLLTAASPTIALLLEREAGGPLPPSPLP
Inadl_5, Q8NI35, sequence (Q8NI35 673-780): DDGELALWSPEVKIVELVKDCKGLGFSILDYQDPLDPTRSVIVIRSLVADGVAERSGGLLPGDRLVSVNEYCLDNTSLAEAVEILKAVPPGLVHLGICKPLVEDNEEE
MAGI2_5, Q86UL8, sequence (Q86UL8 915-1017): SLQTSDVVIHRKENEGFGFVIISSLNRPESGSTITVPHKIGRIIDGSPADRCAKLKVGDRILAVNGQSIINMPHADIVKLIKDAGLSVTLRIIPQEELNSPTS
Inadl_6, Q8NI35, sequence (Q8NI35 1058-1167): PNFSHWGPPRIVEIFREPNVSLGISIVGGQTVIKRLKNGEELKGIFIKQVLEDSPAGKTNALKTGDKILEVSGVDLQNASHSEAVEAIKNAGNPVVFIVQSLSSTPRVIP
DLG1_3, Q12959, sequence (Q12959 457-571): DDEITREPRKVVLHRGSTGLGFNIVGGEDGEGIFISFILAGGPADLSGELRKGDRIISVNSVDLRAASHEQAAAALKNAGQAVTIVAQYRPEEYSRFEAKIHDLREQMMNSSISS
LNX1_3, Q8TBB1, sequence (Q8TBB1 500-596): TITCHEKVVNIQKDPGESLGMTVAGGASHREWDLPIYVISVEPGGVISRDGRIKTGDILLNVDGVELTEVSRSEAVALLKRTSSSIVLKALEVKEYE
MAGI2_3, Q86UL8, sequence (Q86UL8 600-682): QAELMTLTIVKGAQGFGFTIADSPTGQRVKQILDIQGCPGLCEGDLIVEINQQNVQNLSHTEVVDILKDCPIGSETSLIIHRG
NHERF4_2, Q86UT5, sequence (Q86UT5 220-308): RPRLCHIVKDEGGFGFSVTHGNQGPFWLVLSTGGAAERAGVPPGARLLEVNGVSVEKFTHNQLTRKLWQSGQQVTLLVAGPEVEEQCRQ
GIPC2, Q8TF65, sequence (Q8TF65 112-203): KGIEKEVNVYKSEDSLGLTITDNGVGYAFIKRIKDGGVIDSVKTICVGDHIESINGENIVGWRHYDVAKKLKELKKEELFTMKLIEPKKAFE
PTPN3, P26045, sequence (P26045 505-587): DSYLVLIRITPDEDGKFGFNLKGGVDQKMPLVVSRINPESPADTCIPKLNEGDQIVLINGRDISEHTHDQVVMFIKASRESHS
ARHGEF12, Q9NZN5-2, sequence (Q9NZN5 other isoform, or with tags, fused parts or gaps): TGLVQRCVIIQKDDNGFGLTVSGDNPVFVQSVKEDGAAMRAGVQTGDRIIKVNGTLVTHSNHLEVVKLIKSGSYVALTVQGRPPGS
LDB3, O75112, sequence (O75112 1-94): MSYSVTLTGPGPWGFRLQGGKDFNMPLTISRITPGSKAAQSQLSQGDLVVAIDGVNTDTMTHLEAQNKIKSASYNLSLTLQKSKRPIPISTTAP

Row | Binder | pKd (ARHGEF12, Q9NZN5-2) | pKd (CARD11, Q9BXL7) | pKd (DLG1_3, Q12959) | pKd (FRMPD1, Q5SYB0) | pKd (GIPC2, Q8TF65) | pKd (GRIP1_2, Q9Y3R0) | pKd (GRIP2_4, Q9C0E4) | pKd (HTRA1, Q92743) | pKd (HTRA4, P83105) | pKd (Inadl_5, Q8NI35) | pKd (Inadl_6, Q8NI35) | pKd (LDB3, O75112) | pKd (LNX1_3, Q8TBB1) | pKd (MAGI2_3, Q86UL8) | pKd (MAGI2_4, Q86UL8) | pKd (MAGI2_5, Q86UL8) | pKd (NHERF3_3, Q5T2W1) | pKd (NHERF3_4, Q5T2W1) | pKd (NHERF4_2, Q86UT5) | pKd (PDZD2_2, O15018) | further results
1 | QSARLWETSI [ADAM22, Q9P0K1] | 4.73 | below the threshold | 4.66 | below the threshold | 4.11 | below the threshold | below the threshold | 3.92 | 3.61 | below the threshold | 4.06 | below the threshold | below the threshold | below the threshold | below the threshold | 3.7 | below the threshold | below the threshold | below the threshold | 4.46 | pKd (PICK1, Q9NRD5): 3.91; pKd (PTPN3, P26045): 4.83; pKd (SCRIB_2, Q14160): 4.71; pKd (SIPA1L2, Q9P2F8): below the threshold; pKd (SNTA1, Q13424): 4.49; pKd (SNTG1, Q9NSN8): 4.82; pKd (TJP3_3, O95049): below the threshold
2 | TASPAKETSF [SLC2A7, Q6PXP3] | 3.59 | below the threshold | below the threshold | below the threshold | below the threshold | below the threshold | below the threshold | below the threshold | below the threshold | below the threshold | below the threshold | 3.65 | below the threshold | below the threshold | 3.52 | below the threshold | below the threshold | below the threshold | below the threshold | below the threshold | pKd (PICK1, Q9NRD5): below the threshold; pKd (PTPN3, P26045): 5.22; pKd (SCRIB_2, Q14160): 4.12; pKd (SIPA1L2, Q9P2F8): below the threshold; pKd (SNTA1, Q13424): 3.57; pKd (SNTG1, Q9NSN8): 3.56; pKd (TJP3_3, O95049): below the threshold
3 | SAAKVLTSMC [GHRHR, Q02643] | 4.65 | below the threshold | 3.6 | below the threshold | below the threshold | below the threshold | below the threshold | 3.55 | below the threshold | below the threshold | below the threshold | below the threshold | below the threshold | below the threshold | below the threshold | 4.36 | below the threshold | 4 | below the threshold | 4.75 | pKd (PICK1, Q9NRD5): below the threshold; pKd (PTPN3, P26045): 3.71; pKd (SCRIB_2, Q14160): below the threshold; pKd (SIPA1L2, Q9P2F8): below the threshold; pKd (SNTA1, Q13424): below the threshold; pKd (SNTG1, Q9NSN8): below the threshold; pKd (TJP3_3, O95049): below the threshold
4 | RKPKPSSSCC [RAB9A, P51151] | 4.27 | below the threshold | below the threshold | below the threshold | 3.73 | below the threshold | below the threshold | below the threshold | below the threshold | below the threshold | below the threshold | 3.51 | below the threshold | below the threshold | below the threshold | below the threshold | below the threshold | below the threshold | below the threshold | 4.35 | pKd (PICK1, Q9NRD5): below the threshold; pKd (PTPN3, P26045): 3.83; pKd (SCRIB_2, Q14160): below the threshold; pKd (SIPA1L2, Q9P2F8): below the threshold; pKd (SNTA1, Q13424): below the threshold; pKd (SNTG1, Q9NSN8): below the threshold; pKd (TJP3_3, O95049): below the threshold
5 | MLSKQSESAI [FLVCR1, Q9Y5Y0] | 3.68 | below the threshold | 3.77 | below the threshold | 3.74 | below the threshold | below the threshold | below the threshold | 3.91 | below the threshold | below the threshold | below the threshold | below the threshold | below the threshold | 3.54 | below the threshold | below the threshold | below the threshold | below the threshold | 4.46 | pKd (PICK1, Q9NRD5): below the threshold; pKd (PTPN3, P26045): 4.55; pKd (SCRIB_2, Q14160): 3.55; pKd (SIPA1L2, Q9P2F8): below the threshold; pKd (SNTA1, Q13424): 3.73; pKd (SNTG1, Q9NSN8): 3.93; pKd (TJP3_3, O95049): below the threshold
